Where no end group is shown, it is not given here. The star is where a group is joined. Biotin = O=C1N[C@H]2[C@H](CS[C@H]2CCCCC(=O)*)N1

The target of experiment [1] is T1, DNA-PKcs (Homo sapiens, UniProt P78527). Put plainly: Peptide interaction assay with purified DNA-PKcs. The note with it: 50 mM and 100 mM KCl; streptavidin paramagnetic beads; silver-staining. The class given is binding. Further details: The starting material for purification of DNA-PKcs was HeLa NE; host or cells: HeLa nuclear extract; purified in house over Q Sepharose, heparin agarose, phenyl Sepharose and Mono-S. As to the method:
5 Peptides with the sequence Ser-Gly-Ser-Gly (SEQ ID NO:10) as a linker to 12 amino acid residues (SEQ ID NOS:1 and 12-15) derived from the sequence of Ku80 (see FIG. 5) were generated with a biotin moiety at the N-terminus (Khiron Technologies). Each peptide (2×10^11 moles) was incubated with either 400 ng (˜10^12 moles) of purified DNA-PKcs or 100 μg of crude HeLa NE in 100 μl (final) volume of Z′ buffer (see above for buffer composition). Binding reactions were incubated for 2.75 hours at 4° C., then a 100 μl suspension of para-magnetic beads, containing 1:5 dilution of Dynabeads (Dynal) in Z′ buffer, was added for a final 0.25 hour incubation. Dynabeads are conjugated with Streptavidin. The bead-protein complexes were be retrieved from the solution using a magnet and washed 5 times with 0.5 ml of Buffer X (see above for buffer composition). […]
The inventors synthesised a series of peptides (Peptides A-E, SEQ ID NOS:1 and 12-15) derived in sequence from the extreme C-terminus of Ku80 (residues 609 to 733, SEQ ID NO:11: see FIG. 5 and Materials and Methods). […] The beads were recovered using a magnet, washed extensively in buffer containing the same concentration of KCl as the incubation buffer X (25 mM HEPES pH 7.5, 50 mM/100 mM KCl, 2 mM MgCl2, 0.4% NP-40), and the bound protein eluted in SDS-PAGE sample buffer, resolved on a 6% polyacrylamide gel and detected using silver-staining.

The target of experiment [2] is T1, DNA-PKcs. Put plainly: Peptide interaction assay with crude HeLa cell nuclear extract. The class given is binding. Further details: incubated with ˜100 μg (10 μl) of HeLa Cell nuclear extract (NE); host or cells: HeLa cell nuclear extract. As to the method: (§1) 5 Peptides with the sequence Ser-Gly-Ser-Gly (SEQ ID NO:10) as a linker to 12 amino acid residues (SEQ ID NOS:1 and 12-15) derived from the sequence of Ku80 (see FIG. 5) were generated with a biotin moiety at the N-terminus (Khiron Technologies). Each peptide (2×10^11 moles) was incubated with either 400 ng (˜10^12 moles) of purified DNA-PKcs or 100 μg of crude HeLa NE in 100 μl (final) volume of Z′ buffer (see above for buffer composition). Binding reactions were incubated for 2.75 hours at 4° C., then a 100 μl suspension of para-magnetic beads, containing 1:5 dilution of Dynabeads (Dynal) in Z′ buffer, was added for a final 0.25 hour incubation. Dynabeads are conjugated with Streptavidin. The bead-protein complexes were be retrieved from the solution using a magnet and washed 5 times with 0.5 ml of Buffer X (see above for buffer composition). Proteins retained on the beads were eluted in SDS gel-loading buffer and subjected to polyacrylamide gel eletrophoresis and silver staining.
The ability of each of the five peptides to retrieve proteins from a crude unfractionated HeLa cell nuclear extract was determined. […] Any proteins remaing bound to the peptide/beads was eluted in SDS-PAGE buffer, resolved on a 6% polyacrylamide gel and detected with silver-staining. […]

Experiment [3] has as its target T2, DNA-dependent protein kinase catalytic subunit (DNA-PKcs), human, from HeLa cell nuclear extract (human, UniProt P78527 1-4128).
T2 construct: mature; Used either within crude HeLa nuclear extract or as an essentially homogeneous preparation (about 1 Ku per 840 DNA-PKcs molecules); also called purified DNA-PKcs; homogeneous DNA-PKcs
Put plainly: biotinylated peptide with purified DNA-PKcs, streptavidin magnetic beads, 50 mM or 100 mM KCl, silver stain. As to the method:
as §1, with “12–15)” for “12-15)”, “(2 ×10^11” for “(2×10^11”, “(~10^12” for “(˜10^12”, “Z'” for “Z′”

T1 sequence (P78527 whole entry): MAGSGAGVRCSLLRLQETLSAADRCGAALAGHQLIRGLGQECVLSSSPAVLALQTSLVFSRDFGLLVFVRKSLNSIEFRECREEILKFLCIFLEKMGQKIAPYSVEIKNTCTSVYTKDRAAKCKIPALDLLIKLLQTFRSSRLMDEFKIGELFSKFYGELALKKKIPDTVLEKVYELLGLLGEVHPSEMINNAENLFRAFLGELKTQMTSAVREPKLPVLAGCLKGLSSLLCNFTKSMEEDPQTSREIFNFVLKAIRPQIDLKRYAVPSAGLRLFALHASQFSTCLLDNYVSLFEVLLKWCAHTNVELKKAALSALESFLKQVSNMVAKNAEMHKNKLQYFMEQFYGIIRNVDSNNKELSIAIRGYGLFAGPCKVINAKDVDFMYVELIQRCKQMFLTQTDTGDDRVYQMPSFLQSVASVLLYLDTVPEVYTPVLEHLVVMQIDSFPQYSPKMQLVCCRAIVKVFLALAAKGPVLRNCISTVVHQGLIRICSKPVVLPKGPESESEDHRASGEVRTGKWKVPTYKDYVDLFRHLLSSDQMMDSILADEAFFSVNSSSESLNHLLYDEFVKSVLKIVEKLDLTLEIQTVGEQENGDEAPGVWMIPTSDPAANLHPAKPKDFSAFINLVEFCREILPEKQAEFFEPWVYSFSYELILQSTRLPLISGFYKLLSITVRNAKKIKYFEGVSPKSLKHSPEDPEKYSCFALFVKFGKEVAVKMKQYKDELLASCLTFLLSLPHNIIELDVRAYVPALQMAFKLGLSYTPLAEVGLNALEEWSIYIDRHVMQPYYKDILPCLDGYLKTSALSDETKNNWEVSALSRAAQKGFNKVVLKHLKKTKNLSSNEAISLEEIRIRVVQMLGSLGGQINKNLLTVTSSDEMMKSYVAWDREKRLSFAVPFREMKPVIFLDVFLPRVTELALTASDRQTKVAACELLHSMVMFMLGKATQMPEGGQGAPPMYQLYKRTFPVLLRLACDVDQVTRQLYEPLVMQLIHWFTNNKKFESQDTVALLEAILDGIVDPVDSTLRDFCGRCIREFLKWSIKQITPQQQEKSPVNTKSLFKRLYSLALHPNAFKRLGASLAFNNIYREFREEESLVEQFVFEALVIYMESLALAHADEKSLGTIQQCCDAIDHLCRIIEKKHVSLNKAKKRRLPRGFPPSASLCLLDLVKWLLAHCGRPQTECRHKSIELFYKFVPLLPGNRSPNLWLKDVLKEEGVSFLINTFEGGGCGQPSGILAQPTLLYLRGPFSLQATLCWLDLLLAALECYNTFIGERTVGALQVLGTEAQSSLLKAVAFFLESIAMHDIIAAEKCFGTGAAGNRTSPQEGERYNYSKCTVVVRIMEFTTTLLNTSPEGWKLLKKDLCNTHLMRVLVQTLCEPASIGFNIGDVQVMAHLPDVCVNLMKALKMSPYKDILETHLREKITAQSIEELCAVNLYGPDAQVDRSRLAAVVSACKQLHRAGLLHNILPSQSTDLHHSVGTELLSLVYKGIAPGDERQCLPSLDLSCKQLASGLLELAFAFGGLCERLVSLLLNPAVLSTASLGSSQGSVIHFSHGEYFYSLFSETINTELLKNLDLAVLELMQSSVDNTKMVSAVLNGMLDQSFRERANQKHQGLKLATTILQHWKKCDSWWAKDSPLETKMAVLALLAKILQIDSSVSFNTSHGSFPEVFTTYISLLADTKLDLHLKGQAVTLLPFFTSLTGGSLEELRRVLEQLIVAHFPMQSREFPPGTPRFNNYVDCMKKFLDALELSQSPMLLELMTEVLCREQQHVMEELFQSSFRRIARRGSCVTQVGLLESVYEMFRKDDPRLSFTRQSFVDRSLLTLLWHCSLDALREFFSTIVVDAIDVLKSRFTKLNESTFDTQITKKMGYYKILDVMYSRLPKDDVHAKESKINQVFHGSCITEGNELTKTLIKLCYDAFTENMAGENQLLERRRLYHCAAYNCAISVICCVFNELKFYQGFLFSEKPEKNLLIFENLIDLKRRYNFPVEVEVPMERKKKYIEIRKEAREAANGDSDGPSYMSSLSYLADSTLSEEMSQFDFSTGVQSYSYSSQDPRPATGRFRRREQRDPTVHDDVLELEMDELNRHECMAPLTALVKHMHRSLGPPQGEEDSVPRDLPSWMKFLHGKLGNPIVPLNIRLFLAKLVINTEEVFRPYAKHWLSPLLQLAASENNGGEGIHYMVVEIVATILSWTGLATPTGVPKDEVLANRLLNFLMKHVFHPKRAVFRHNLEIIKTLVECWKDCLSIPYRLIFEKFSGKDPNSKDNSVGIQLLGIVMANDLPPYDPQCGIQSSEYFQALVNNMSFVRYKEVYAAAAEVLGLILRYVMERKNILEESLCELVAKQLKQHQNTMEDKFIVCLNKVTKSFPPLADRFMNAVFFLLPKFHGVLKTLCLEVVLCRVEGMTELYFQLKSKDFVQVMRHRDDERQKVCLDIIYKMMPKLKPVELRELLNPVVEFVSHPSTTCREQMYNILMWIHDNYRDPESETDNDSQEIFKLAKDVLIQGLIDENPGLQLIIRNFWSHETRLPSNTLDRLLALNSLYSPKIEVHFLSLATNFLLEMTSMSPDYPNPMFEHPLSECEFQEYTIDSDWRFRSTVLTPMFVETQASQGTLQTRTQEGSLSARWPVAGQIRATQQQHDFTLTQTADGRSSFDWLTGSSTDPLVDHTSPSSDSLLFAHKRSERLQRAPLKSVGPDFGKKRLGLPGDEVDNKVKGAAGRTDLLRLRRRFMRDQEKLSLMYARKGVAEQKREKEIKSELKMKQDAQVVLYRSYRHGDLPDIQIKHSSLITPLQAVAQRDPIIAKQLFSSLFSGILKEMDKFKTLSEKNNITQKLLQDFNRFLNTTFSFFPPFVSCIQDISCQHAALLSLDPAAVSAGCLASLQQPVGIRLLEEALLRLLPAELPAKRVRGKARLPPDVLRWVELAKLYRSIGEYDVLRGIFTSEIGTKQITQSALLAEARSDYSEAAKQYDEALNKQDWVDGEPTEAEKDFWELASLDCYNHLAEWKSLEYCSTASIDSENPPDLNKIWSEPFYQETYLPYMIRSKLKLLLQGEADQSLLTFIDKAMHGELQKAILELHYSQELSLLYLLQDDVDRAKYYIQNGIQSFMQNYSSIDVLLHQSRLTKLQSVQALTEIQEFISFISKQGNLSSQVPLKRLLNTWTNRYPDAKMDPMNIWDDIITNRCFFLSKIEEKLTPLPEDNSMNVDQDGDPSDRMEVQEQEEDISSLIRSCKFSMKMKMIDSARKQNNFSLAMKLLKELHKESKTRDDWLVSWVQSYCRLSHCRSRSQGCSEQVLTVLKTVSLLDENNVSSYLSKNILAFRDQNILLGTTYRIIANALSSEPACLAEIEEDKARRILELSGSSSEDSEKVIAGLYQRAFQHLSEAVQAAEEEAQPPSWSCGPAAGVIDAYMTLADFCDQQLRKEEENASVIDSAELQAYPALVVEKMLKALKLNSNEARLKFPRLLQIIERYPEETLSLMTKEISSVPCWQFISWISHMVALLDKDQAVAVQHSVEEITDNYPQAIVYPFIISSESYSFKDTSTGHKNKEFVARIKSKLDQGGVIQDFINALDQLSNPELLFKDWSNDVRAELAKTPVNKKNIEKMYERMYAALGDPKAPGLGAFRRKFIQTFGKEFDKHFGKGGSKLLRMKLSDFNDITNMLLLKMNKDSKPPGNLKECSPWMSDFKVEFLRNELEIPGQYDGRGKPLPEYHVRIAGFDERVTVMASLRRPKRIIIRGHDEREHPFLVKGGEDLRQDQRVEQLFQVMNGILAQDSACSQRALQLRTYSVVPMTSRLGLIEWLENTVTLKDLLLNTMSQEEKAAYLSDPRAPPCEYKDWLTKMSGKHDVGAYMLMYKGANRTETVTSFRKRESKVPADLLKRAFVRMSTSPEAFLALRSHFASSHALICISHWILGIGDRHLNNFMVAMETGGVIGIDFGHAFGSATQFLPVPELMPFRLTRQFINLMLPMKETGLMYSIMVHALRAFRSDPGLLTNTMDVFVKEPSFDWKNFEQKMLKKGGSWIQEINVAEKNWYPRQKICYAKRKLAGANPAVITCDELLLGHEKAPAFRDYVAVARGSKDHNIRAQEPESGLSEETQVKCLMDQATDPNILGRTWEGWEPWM
T2 sequence (P78527 whole entry): as above

In the case of EGGDVDDLLDMI [Peptide E], in the experiment with DNA-PKcs [1], the “binding of purified DNA-PKcs by biotinylated peptide” value is recorded as “interacts directly with DNA-PKcs”. Moreover, in the experiment with DNA-PKcs [2] (50 mM KCl, streptavidin magnetic beads, silver-staining, western blotting), the “proteins retrieved from HeLa nuclear extract by biotinylated peptide” value is “affinity purified predominantly a single protein species of high molecular weight”. Besides, the “depletion of DNA-PKcs from HeLa nuclear extract” value with DNA-PKcs [2] (additional studies) is reported as 60-70%.

B1: Peptide A (biotin-Ser-Gly-Ser-Gly linked to 12 residues of the Ku80 C-terminus) (peptide)
peptide: Biotin-SGSGEEAKKFLAPKDK
On to B1, for which the binding result in experiment [3] is given as “no binding”.

B2: Peptide B (biotin-Ser-Gly-Ser-Gly linked to 12 residues of the Ku80 C-terminus) (peptide)
peptide: Biotin-SGSGLAPKDKPSGDTA
With B2, the binding result in experiment [3] is on record as “no binding”.

B3: Peptide D (biotin-Ser-Gly-Ser-Gly linked to 12 residues of the Ku80 C-terminus) (peptide)
peptide: Biotin-SGSGAVFEEGGDVDDL
With B3, in experiment [3], the binding result was “no binding”.

B4: Peptide C (biotin-Ser-Gly-Ser-Gly linked to 12 residues of the Ku80 C-terminus) (peptide)
peptide: Biotin-SGSGPSGDTAAVFEEG
With B4, the binding result in experiment [3] was “no binding”.

The values are drawn from patent publication US6753151B1, “Interactions of Ku polypeptides and applications thereof” (Kudos Pharmaceuticals Limited, priority 1999, dated 2004).
